Stoichiometry N data for three substances are collected here from paper doi:10.1101/2022.08.30.505904.

The target of assay [1] is CBKP2 complex (PaCgi121/PaBud32/PaKae1/PaPcc2) (Pyrococcus abyssi | Pyrococcus abyssi GE5) (UniProt Q9UXT7). The assay can be described thus: SEC-SAXS.
Assay [2] has as its target CBKP1 complex (PaCgi121/PaBud32/PaKae1/PaPcc1) (Pyrococcus abyssi) (UniProt Q9UXT7). Nature of the assay: SEC-SAXS. In general terms: Size exclusion chromatography separates by hydrodynamic size, large species first.
Assay [3] addresses PaPcc2 with C-terminal hexa-histidine tag (Pyrococcus abyssi GE5). Nature of the assay: SEC.

The term stoichiometry N denotes the number of molecules, sites or subunits per partner or assembly. In turn, “CBKP2 complex (PaCgi121/PaBud32/PaKae1/PaPcc2) (from UniProt Q9UXT7 1-324)” registered a stoichiometry N in assay [1] of 2.
For “CBKP1 complex (PaCgi121/PaBud32/PaKae1/PaPcc1) (from UniProt Q9UXT7 1-324)”, the stoichiometry N in assay [2] is 2.
In the case of “PaPcc2 with C-terminal hexa-histidine tag (natural protein)”, in assay [3], the stoichiometry N is 2.
